# Results reported in patent US20030199016.
# Tests used:
# [1] = test system: TNK-tPA
# [2] = test system: CHO plasminogen activator
# [3] = test system: ACTIVASE recombinant human tissue-type plasminogen activator (r-tPA)
# Sequence of ACTIVASE recombinant human tissue-type plasminogen activator (r-tPA) (chain, as listed by the source): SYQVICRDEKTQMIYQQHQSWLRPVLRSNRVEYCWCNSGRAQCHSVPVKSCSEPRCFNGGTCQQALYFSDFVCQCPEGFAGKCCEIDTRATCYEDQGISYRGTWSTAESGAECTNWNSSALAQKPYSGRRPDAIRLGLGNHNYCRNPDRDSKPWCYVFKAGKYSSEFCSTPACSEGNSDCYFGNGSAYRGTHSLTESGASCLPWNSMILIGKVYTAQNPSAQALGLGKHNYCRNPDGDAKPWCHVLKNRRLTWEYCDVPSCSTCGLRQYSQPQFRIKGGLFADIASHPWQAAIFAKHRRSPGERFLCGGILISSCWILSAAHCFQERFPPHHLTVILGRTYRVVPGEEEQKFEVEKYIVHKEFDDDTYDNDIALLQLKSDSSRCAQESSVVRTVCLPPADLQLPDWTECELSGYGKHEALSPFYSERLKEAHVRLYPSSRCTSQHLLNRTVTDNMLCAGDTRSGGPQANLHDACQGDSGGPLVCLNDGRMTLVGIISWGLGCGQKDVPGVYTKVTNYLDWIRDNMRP
# Sequence of TNK-tPA (chain, as listed by the source): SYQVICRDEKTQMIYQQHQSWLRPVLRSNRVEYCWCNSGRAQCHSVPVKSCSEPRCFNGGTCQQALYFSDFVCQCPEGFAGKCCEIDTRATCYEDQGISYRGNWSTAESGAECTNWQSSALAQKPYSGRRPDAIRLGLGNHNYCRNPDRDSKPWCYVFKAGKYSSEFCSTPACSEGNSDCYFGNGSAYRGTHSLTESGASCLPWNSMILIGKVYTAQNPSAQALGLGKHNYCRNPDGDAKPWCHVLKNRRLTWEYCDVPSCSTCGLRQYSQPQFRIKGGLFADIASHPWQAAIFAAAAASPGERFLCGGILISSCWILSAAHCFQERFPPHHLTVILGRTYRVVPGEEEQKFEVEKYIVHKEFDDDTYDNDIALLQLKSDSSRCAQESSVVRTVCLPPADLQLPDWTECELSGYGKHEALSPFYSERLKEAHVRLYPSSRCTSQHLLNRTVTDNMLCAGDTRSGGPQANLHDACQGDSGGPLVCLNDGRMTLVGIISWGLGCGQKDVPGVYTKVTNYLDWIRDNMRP
# Sequence of CHO plasminogen activator (chain, as listed by the source): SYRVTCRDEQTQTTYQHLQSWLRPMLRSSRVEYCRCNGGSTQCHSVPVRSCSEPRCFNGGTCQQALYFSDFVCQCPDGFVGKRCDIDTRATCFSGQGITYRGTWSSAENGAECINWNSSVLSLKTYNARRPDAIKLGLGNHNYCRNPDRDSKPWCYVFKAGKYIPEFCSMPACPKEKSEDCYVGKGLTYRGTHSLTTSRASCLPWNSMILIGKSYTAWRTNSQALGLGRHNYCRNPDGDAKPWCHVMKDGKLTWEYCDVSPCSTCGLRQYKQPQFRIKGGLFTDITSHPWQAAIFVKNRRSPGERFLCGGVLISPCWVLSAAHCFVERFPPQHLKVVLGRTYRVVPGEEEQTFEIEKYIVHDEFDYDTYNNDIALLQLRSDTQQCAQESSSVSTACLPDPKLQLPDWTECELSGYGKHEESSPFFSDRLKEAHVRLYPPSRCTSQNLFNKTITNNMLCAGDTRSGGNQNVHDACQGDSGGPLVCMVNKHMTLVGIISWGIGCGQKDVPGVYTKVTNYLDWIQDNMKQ
substance,measurement,setting,value
Plasminogen,conversion of single-chain form to two-chain form (reversed-phase HPLC after plasmin and DTT/urea treatment),[1],incubation with plasminogen converts the single-chain form of the three plasminogen activators to the two-chain form
same,conversion of single-chain form to two-chain form (reversed-phase HPLC after plasmin and DTT/urea treatment),[2],incubation with plasminogen converts the single-chain form of the three plasminogen activators to the two-chain form
same,conversion of single-chain form to two-chain form (reversed-phase HPLC after plasmin and DTT/urea treatment),[3],incubation with plasminogen converts the single-chain form of the three plasminogen activators to the two-chain form
